Results: paper PMC3496014

Assays:
[1] = molecular target: MBP-PfAtg3 (P. falciparum 3D7) (UniProt C0H519); assay: pull-down
[2] = molecular target: MBP-PfAtg3 W105A (P. falciparum 3D7) (UniProt C0H519); assay: pull-down
[3] = molecular target: MBP-PfAtg3 (P. falciparum 3D7) (UniProt C0H519); assay: SPR

“His6-PfAtg8 with deletion of residues 68 to 76 (from UniProt Q8IJK2 1-124) (natural protein)” showed a reduction of binding against wild type [1] of 80%.

“His6-PfAtg8^CM (cysteine mutant C37I, C119S, C122S) (from UniProt Q8IJK2 1-124) (natural protein)” showed a decrease of binding against wild type [2] of 35% and a Kd [3] of 326 nM.
